Numbered stars: 1 amine (or outer) side, 2 acyl side, 3 side chain; on linkers, the order of the positions; unused ones are H or OH. Square brackets hold non-standard residues; d marks the D form. Side chains are listed from the residue outwards. Ends that are not written are not given here. * marks the point of attachment. C20 diacid = O=C(O)CCCCCCCCCCCCCCCCCCC(=O)*; γGlu = O=C(O)[C@H](CCC(=O)[*:2])N[*:1]; Desaminohistidyl = O=C(CCc1c[nH]cn1)*; αMeF = C[C@](N)(Cc1ccccc1)C(=O)O; AEEA = NCCOCCOCC(=O)O; Aib = CC(C)(N)C(=O)O
T1: human GIP receptor (human, UniProt P48546 22-466)
T1 sequence (looked up): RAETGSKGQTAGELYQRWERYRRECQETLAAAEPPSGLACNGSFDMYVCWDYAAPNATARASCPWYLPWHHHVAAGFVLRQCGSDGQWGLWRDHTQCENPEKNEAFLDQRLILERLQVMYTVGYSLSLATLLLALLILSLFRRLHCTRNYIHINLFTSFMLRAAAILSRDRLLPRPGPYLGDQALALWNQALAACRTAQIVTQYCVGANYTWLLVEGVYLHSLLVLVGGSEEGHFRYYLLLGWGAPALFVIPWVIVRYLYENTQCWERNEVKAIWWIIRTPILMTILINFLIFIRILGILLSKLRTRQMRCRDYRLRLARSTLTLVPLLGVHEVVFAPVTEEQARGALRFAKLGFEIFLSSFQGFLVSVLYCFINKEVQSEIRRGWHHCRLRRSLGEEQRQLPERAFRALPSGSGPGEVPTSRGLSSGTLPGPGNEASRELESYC

B1: Example 102 (peptide)
peptide: Y[Aib]EGT[αMeF]TSDYSI[Aib]LDEK([AEEA-AEEA-γGlu-C20 diacid])AQ[Aib]AFIEYLIEGG-NH2
modifications: N-terminus assumed
SMILES: CC[C@H](C)[C@H](NC(=O)[C@H](CC(C)C)NC(=O)[C@H](Cc1ccc(O)cc1)NC(=O)[C@H](CCC(=O)O)NC(=O)[C@@H](NC(=O)[C@H](Cc1ccccc1)NC(=O)[C@H](C)NC(=O)C(C)(C)NC(=O)[C@H](CCC(N)=O)NC(=O)[C@H](C)NC(=O)[C@H](CCCCNC(=O)COCCOCCNC(=O)COCCOCCNC(=O)CC[C@H](NC(=O)CCCCCCCCCCCCCCCCCCC(=O)O)C(=O)O)NC(=O)[C@H](CCC(=O)O)NC(=O)[C@H](CC(=O)O)NC(=O)[C@H](CC(C)C)NC(=O)C(C)(C)NC(=O)[C@@H](NC(=O)[C@H](CO)NC(=O)[C@H](Cc1ccc(O)cc1)NC(=O)[C@H](CC(=O)O)NC(=O)[C@H](CO)NC(=O)[C@@H](NC(=O)[C@](C)(Cc1ccccc1)NC(=O)[C@@H](NC(=O)CNC(=O)[C@H](CCC(=O)O)NC(=O)C(C)(C)NC(=O)[C@@H](N)Cc1ccc(O)cc1)[C@@H](C)O)[C@@H](C)O)[C@@H](C)CC)[C@@H](C)CC)C(=O)N[C@@H](CCC(=O)O)C(=O)NCC(=O)NCC(N)=O
B2: Example 6 (peptide)
peptide: Y[Aib]EGTFTSDYSILLDKK([AEEA-AEEA-γGlu-C20 diacid])AQ[Aib]AFIEYLLEGGPSSGAPPPS-NH2
modifications: N-terminus assumed
SMILES: CC[C@H](C)[C@H](NC(=O)[C@H](Cc1ccccc1)NC(=O)[C@H](C)NC(=O)C(C)(C)NC(=O)[C@H](CCC(N)=O)NC(=O)[C@H](C)NC(=O)[C@H](CCCCNC(=O)COCCOCCNC(=O)COCCOCCNC(=O)CC[C@H](NC(=O)CCCCCCCCCCCCCCCCCCC(=O)O)C(=O)O)NC(=O)[C@H](CCCCN)NC(=O)[C@H](CC(=O)O)NC(=O)[C@H](CC(C)C)NC(=O)[C@H](CC(C)C)NC(=O)[C@@H](NC(=O)[C@H](CO)NC(=O)[C@H](Cc1ccc(O)cc1)NC(=O)[C@H](CC(=O)O)NC(=O)[C@H](CO)NC(=O)[C@@H](NC(=O)[C@H](Cc1ccccc1)NC(=O)[C@@H](NC(=O)CNC(=O)[C@H](CCC(=O)O)NC(=O)C(C)(C)NC(=O)[C@@H](N)Cc1ccc(O)cc1)[C@@H](C)O)[C@@H](C)O)[C@@H](C)CC)C(=O)N[C@@H](CCC(=O)O)C(=O)N[C@@H](Cc1ccc(O)cc1)C(=O)N[C@@H](CC(C)C)C(=O)N[C@@H](CC(C)C)C(=O)N[C@@H](CCC(=O)O)C(=O)NCC(=O)NCC(=O)N1CCC[C@H]1C(=O)N[C@@H](CO)C(=O)N[C@@H](CO)C(=O)NCC(=O)N[C@@H](C)C(=O)N1CCC[C@H]1C(=O)N1CCC[C@H]1C(=O)N1CCC[C@H]1C(=O)N[C@@H](CO)C(N)=O
B3: Example 105 (peptide)
peptide: [Desaminohistidyl][Aib]EGTFTSDYSILLDKK([AEEA-AEEA-γGlu-C20 diacid])AQ[Aib]AFIEYLIEGGPSSGAPPPS-NH2
modifications: also: ψ[NHCO] bond between DesHis1 and Aib2
B4: Example 106 (peptide)
peptide: [Desaminohistidyl][Aib]EGTFTSDYSILLDKK([AEEA-AEEA-γGlu-C20 diacid])AQ[Aib]AFIEYLIEGGPSSGAPPPS-NH2
B5: Example 107 (peptide)
peptide: XXEGTFTSDYSILLDKKAQXAFIEYLIEGGPSSGAPPPS
modifications: DesTyr1; Aib2; K17((2-[2-(2-Amino-ethoxy)-ethoxy]-acetyl)2-(γ-Glu)-CO-(CH2)18-CO2H); Aib20; C-terminal NH2
B6: Example 110 (peptide)
peptide: YXEGTFTSDYSILLDKKAQXAFIEYLIEGGPSSGAPPPS
modifications: Aib2; K17((2-[2-(2-Amino-ethoxy)-ethoxy]-acetyl)-(γ-Glu)-(Trx)-CO-(CH2)18-CO2H); Aib20; C-terminal NH2
B7: Example 112 (peptide)
peptide: YXEGTFTSDYSILLDKKAQXAFIEYLIEGGPSSGAPPPS
modifications: Aib2; K17((2-[2-(2-Amino-ethoxy)-ethoxy]-acetyl)-(ϵK)-(γ-Glu)-CO-(CH2)18-CO2H); Aib20; C-terminal NH2
B8: Example 7 (peptide)
peptide: Y[Aib]EGTFTSDYSILLDSK([AEEA-AEEA-γGlu-C20 diacid])AQ[Aib]AFIEYLLEGGPSSGAPPPS-NH2
modifications: N-terminus assumed
SMILES: CC[C@H](C)[C@H](NC(=O)[C@H](Cc1ccccc1)NC(=O)[C@H](C)NC(=O)C(C)(C)NC(=O)[C@H](CCC(N)=O)NC(=O)[C@H](C)NC(=O)[C@H](CCCCNC(=O)COCCOCCNC(=O)COCCOCCNC(=O)CC[C@H](NC(=O)CCCCCCCCCCCCCCCCCCC(=O)O)C(=O)O)NC(=O)[C@H](CO)NC(=O)[C@H](CC(=O)O)NC(=O)[C@H](CC(C)C)NC(=O)[C@H](CC(C)C)NC(=O)[C@@H](NC(=O)[C@H](CO)NC(=O)[C@H](Cc1ccc(O)cc1)NC(=O)[C@H](CC(=O)O)NC(=O)[C@H](CO)NC(=O)[C@@H](NC(=O)[C@H](Cc1ccccc1)NC(=O)[C@@H](NC(=O)CNC(=O)[C@H](CCC(=O)O)NC(=O)C(C)(C)NC(=O)[C@@H](N)Cc1ccc(O)cc1)[C@@H](C)O)[C@@H](C)O)[C@@H](C)CC)C(=O)N[C@@H](CCC(=O)O)C(=O)N[C@@H](Cc1ccc(O)cc1)C(=O)N[C@@H](CC(C)C)C(=O)N[C@@H](CC(C)C)C(=O)N[C@@H](CCC(=O)O)C(=O)NCC(=O)NCC(=O)N1CCC[C@H]1C(=O)N[C@@H](CO)C(=O)N[C@@H](CO)C(=O)NCC(=O)N[C@@H](C)C(=O)N1CCC[C@H]1C(=O)N1CCC[C@H]1C(=O)N1CCC[C@H]1C(=O)N[C@@H](CO)C(N)=O
B9: Example 113 (peptide)
peptide: YXEGTFTSDYSILLDKKAQXAFIEYLIEGGPSSGAPPPS
modifications: Aib2; K17((2-[2-(2-Amino-ethoxy)-ethoxy]-acetyl)2-(ϵK)-CO-(CH2)18-CO2H); Aib20; C-terminal NH2
B10: Example 117 (peptide)
peptide: Y[Aib]EGT[αMeF]TSDYSI[Aib]LDEK([AEEA-AEEA-γGlu-C20 diacid])AQ[Aib]AFIEYLIEGGPSSGAPPPS-NH2
modifications: N-terminus assumed
SMILES: CC[C@H](C)[C@H](NC(=O)[C@H](CC(C)C)NC(=O)[C@H](Cc1ccc(O)cc1)NC(=O)[C@H](CCC(=O)O)NC(=O)[C@@H](NC(=O)[C@H](Cc1ccccc1)NC(=O)[C@H](C)NC(=O)C(C)(C)NC(=O)[C@H](CCC(N)=O)NC(=O)[C@H](C)NC(=O)[C@H](CCCCNC(=O)COCCOCCNC(=O)COCCOCCNC(=O)CC[C@H](NC(=O)CCCCCCCCCCCCCCCCCCC(=O)O)C(=O)O)NC(=O)[C@H](CCC(=O)O)NC(=O)[C@H](CC(=O)O)NC(=O)[C@H](CC(C)C)NC(=O)C(C)(C)NC(=O)[C@@H](NC(=O)[C@H](CO)NC(=O)[C@H](Cc1ccc(O)cc1)NC(=O)[C@H](CC(=O)O)NC(=O)[C@H](CO)NC(=O)[C@@H](NC(=O)[C@](C)(Cc1ccccc1)NC(=O)[C@@H](NC(=O)CNC(=O)[C@H](CCC(=O)O)NC(=O)C(C)(C)NC(=O)[C@@H](N)Cc1ccc(O)cc1)[C@@H](C)O)[C@@H](C)O)[C@@H](C)CC)[C@@H](C)CC)C(=O)N[C@@H](CCC(=O)O)C(=O)NCC(=O)NCC(=O)N1CCC[C@H]1C(=O)N[C@@H](CO)C(=O)N[C@@H](CO)C(=O)NCC(=O)N[C@@H](C)C(=O)N1CCC[C@H]1C(=O)N1CCC[C@H]1C(=O)N1CCC[C@H]1C(=O)N[C@@H](CO)C(N)=O
B11: Example 8 (peptide)
peptide: YXEGTFTSDYSILLDKKAQXAFIEYLIEGGPSSGAPPPS
modifications: Aib2; K17((2-[2-(2-Amino-ethoxy)-ethoxy]-acetyl)2-(γ-Glu)-CO-(CH2)18-CO2H); Aib20; C-terminal NH2
B12: Example 9 (peptide)
peptide: Y[Aib]EGTFTSDYSILLDSK([AEEA-AEEA-γGlu-C20 diacid])AQ[Aib]AFIEYLIEGGPSSGAPPPS-NH2
modifications: N-terminus assumed
SMILES: CC[C@H](C)[C@H](NC(=O)[C@H](CC(C)C)NC(=O)[C@H](Cc1ccc(O)cc1)NC(=O)[C@H](CCC(=O)O)NC(=O)[C@@H](NC(=O)[C@H](Cc1ccccc1)NC(=O)[C@H](C)NC(=O)C(C)(C)NC(=O)[C@H](CCC(N)=O)NC(=O)[C@H](C)NC(=O)[C@H](CCCCNC(=O)COCCOCCNC(=O)COCCOCCNC(=O)CC[C@H](NC(=O)CCCCCCCCCCCCCCCCCCC(=O)O)C(=O)O)NC(=O)[C@H](CO)NC(=O)[C@H](CC(=O)O)NC(=O)[C@H](CC(C)C)NC(=O)[C@H](CC(C)C)NC(=O)[C@@H](NC(=O)[C@H](CO)NC(=O)[C@H](Cc1ccc(O)cc1)NC(=O)[C@H](CC(=O)O)NC(=O)[C@H](CO)NC(=O)[C@@H](NC(=O)[C@H](Cc1ccccc1)NC(=O)[C@@H](NC(=O)CNC(=O)[C@H](CCC(=O)O)NC(=O)C(C)(C)NC(=O)[C@@H](N)Cc1ccc(O)cc1)[C@@H](C)O)[C@@H](C)O)[C@@H](C)CC)[C@@H](C)CC)C(=O)N[C@@H](CCC(=O)O)C(=O)NCC(=O)NCC(=O)N1CCC[C@H]1C(=O)N[C@@H](CO)C(=O)N[C@@H](CO)C(=O)NCC(=O)N[C@@H](C)C(=O)N1CCC[C@H]1C(=O)N1CCC[C@H]1C(=O)N1CCC[C@H]1C(=O)N[C@@H](CO)C(N)=O

Experiments:
[1] = biological target: T1, human GIP receptor; experiment: cell-based or functional assay
[2] = biological target: human GLP-1 receptor (human, UniProt P43220 24-463); experiment: cell-based or functional assay

Row | Binder | hGIPR cAMP EC50 ratio [1] | hGIPR cAMP Rel EC50 [1] | hGLP1R cAMP EC50 ratio [2] | hGLP1R cAMP Rel EC50 [2]
1 | B1 | 0.983 | 178 pM | 0.913 | 62.8 pM
2 | B2 | 2.09 | 89.9 pM | 0.185 | 374 pM
3 | B3 | 0.101 | 1850 pM | 1.51 | 40.1 pM
4 | B4 | 0.0302 | 6540 pM | 1.42 | 41.3 pM
5 | B5 | 0.747 | 241 pM | 1.1 | 53.9 pM
6 | B6 | – | 218 pM | – | 179 pM
7 | B7 | – | 124 pM | – | 160 pM
8 | B8 | 0.317 | 461 pM | 0.13 | 470 pM
9 | B9 | – | 166 pM | – | 233 pM
10 | B10 | 2.44 | 64.8 pM | 0.998 | 61.5 pM
11 | B11 | – | 84.8 pM | – | 148 pM
12 | B12 | 0.768 | 210 pM | 0.314 | 194 pM

Reference: patent publication US20220048967A1 (published 2022)
